{"source": "patent US20220033450A1", "about": "“VIRALLY EXPRESSED INHIBITORS OF PDZ DOMAINS, SUCH AS PICK1 AND USES THEREOF” (University of Copenhagen, priority 2018, published 2022)", "origin": "cited, not measured here", "target": "T1, PDZ3 of PSD-95 (Homo sapiens, UniProt P78352)", "T1 construct": "specificity towards PDZ3 over PDZ 1 and 2 in PSD-95 (Toto et al. 2016)", "T1 sequence (P78352 313-393 limits assumed)": "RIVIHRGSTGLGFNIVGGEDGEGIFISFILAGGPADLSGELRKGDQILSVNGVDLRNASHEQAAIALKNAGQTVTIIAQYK", "settings": "Toto et al. 2016; 'supposedly'"}
{"substance": "YKQTSV", "values": [{"measurement": "specificity towards PDZ3 over PDZ 1 and 2 in PSD-95", "result": "> 15", "unit": "fold"}]}
